# Experimental data reported in publication PMC9482650, “Quantitative fragmentomics allow affinity mapping of interactomes” (Nature Communications, 2022).
# T1: DFNB31_3, Q9P202
# T1 sequence (Q9P202 811-907, limits assumed, looked up): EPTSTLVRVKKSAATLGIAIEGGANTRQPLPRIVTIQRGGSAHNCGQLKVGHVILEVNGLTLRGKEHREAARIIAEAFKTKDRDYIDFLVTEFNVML
# T2: DLG3_1, Q92796
# T2 sequence (Q92796 125-227, limits assumed, looked up): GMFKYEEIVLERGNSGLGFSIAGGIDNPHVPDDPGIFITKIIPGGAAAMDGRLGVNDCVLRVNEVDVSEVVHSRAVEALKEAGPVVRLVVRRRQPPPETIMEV
# T3: GRIP1_4, Q9Y3R0
# T3 sequence (Q9Y3R0 467-571, limits assumed, looked up): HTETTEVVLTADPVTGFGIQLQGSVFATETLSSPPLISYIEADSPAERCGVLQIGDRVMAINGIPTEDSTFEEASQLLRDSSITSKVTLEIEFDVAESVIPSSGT
# T4: GRIP1_7, Q9Y3R0
# T4 sequence (Q9Y3R0 999-1096, limits assumed, looked up): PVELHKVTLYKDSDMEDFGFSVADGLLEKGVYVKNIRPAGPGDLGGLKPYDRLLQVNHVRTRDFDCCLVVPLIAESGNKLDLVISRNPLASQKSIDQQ
# T5: LNX2_2, Q8N448
# T5 sequence (Q8N448 334-432, limits assumed, looked up): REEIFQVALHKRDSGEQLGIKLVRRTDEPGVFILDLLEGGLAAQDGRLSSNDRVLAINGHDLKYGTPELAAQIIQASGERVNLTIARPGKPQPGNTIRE
# T6: LRRC7, Q96NW7
# T6 sequence (Q96NW7 1440-1537, limits assumed, looked up): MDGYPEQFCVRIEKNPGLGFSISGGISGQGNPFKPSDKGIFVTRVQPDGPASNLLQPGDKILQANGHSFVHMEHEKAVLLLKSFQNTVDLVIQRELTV
# T7: MPDZ_10, O75970
# T7 sequence (O75970 1624-1722, limits assumed, looked up): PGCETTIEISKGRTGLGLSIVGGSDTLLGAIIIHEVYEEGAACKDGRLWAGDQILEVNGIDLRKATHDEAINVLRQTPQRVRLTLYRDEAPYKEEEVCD
# T8: PARD3B_1, Q8TEW8
# T8 sequence (Q8TEW8 196-299, limits assumed, looked up): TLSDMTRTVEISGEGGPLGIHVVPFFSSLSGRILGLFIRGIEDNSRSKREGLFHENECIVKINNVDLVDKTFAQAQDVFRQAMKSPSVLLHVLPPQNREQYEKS
# T9: PCLO, Q9Y6V0
# T9 sequence (Q9Y6V0 4491-4600, limits assumed, looked up): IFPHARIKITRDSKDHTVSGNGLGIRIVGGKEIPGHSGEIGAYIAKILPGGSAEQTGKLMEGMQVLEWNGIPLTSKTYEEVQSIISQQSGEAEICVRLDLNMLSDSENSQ
# T10: SIPA1L2, Q9P2F8
# T10 sequence (Q9P2F8 945-1036, limits assumed, looked up): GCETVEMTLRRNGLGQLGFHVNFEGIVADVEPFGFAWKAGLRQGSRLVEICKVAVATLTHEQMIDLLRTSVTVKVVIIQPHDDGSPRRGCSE
# T11: TIAM2, Q8IVF5
# T11 sequence (Q8IVF5 885-986, limits assumed, looked up): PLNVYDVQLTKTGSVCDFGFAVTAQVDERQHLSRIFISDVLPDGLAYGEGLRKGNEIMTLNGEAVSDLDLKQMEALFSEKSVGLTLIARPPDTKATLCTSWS
# B1: DENND5A, Q6IQ26 (peptide)
# chain: ETSLVKGIDI
# B2: SSTR5, P35346 (peptide)
# chain: ANGLMQTSKL
# B3: STK16, O75716 (peptide)
# chain: PAPGQHTTQI
# Molecular target: AHNAK1, Q09666
# Experiment: holdup assay
# Set-up: key: below the threshold = too weak to quantify, mostly under pKd 3.1 to 4
# Details: plain residues with an end cap or a label only (N-terminal biotin on a linker: ado-ado)
# AHNAK1, Q09666, sequence (Q09666 4-100): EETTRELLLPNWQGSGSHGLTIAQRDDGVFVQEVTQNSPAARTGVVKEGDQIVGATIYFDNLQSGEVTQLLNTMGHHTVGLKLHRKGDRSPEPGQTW
row,pKd,Binder
1,below the threshold,B1
2,below the threshold,B2
3,below the threshold,B3

# Molecular target: T1, DFNB31_3, Q9P202
# Experiment: holdup assay
# Set-up: key: below the threshold = too weak to quantify, mostly under pKd 3.1 to 4
# Details: plain residues with an end cap or a label only (N-terminal biotin on a linker: ado-ado)
row,pKd,Binder
1,below the threshold,B1
2,4.22,B2
3,4.23,B3

# Molecular target: DLG1_1, Q12959
# Experiment: holdup assay
# Set-up: key: below the threshold = too weak to quantify, mostly under pKd 3.1 to 4
# Details: plain residues with an end cap or a label only (N-terminal biotin on a linker: ado-ado)
row,pKd,Binder
1,3.67,B1
2,below the threshold,B2
3,3.56,B3

# Molecular target: DLG2_2, Q15700
# Experiment: holdup assay
# Set-up: key: below the threshold = too weak to quantify, mostly under pKd 3.1 to 4
# Details: plain residues with an end cap or a label only (N-terminal biotin on a linker: ado-ado)
# DLG2_2, Q15700, sequence (Q15700 189-283): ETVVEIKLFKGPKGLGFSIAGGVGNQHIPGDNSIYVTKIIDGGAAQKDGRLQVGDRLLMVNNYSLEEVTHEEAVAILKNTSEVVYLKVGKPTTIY
row,pKd,Binder
1,below the threshold,B1
2,below the threshold,B2
3,3.79,B3

# Molecular target: T2, DLG3_1, Q92796
# Experiment: holdup assay
# Set-up: key: below the threshold = too weak to quantify, mostly under pKd 3.1 to 4
# Details: plain residues with an end cap or a label only (N-terminal biotin on a linker: ado-ado)
row,pKd,Binder
1,below the threshold,B1
2,below the threshold,B2
3,below the threshold,B3

# Molecular target: DLG4_2, P78352
# Experiment: holdup assay
# Set-up: key: below the threshold = too weak to quantify, mostly under pKd 3.1 to 4
# Details: plain residues with an end cap or a label only (N-terminal biotin on a linker: ado-ado)
# DLG4_2, P78352, sequence (P78352 155-259): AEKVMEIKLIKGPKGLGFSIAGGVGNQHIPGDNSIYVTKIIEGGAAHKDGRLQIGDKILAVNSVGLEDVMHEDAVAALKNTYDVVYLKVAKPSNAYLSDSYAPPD
row,pKd,Binder
1,below the threshold,B1
2,below the threshold,B2
3,3.87,B3

# Molecular target: GRID2IP_1, A4D2P6
# Experiment: holdup assay
# Set-up: key: below the threshold = too weak to quantify, mostly under pKd 3.1 to 4
# Details: plain residues with an end cap or a label only (N-terminal biotin on a linker: ado-ado)
# GRID2IP_1, A4D2P6, sequence (A4D2P6 1-87): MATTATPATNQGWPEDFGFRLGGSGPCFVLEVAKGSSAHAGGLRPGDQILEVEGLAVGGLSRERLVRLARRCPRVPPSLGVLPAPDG
row,pKd,Binder
1,below the threshold,B1
2,below the threshold,B2
3,below the threshold,B3

# Molecular target: T3, GRIP1_4, Q9Y3R0
# Experiment: holdup assay
# Set-up: key: below the threshold = too weak to quantify, mostly under pKd 3.1 to 4
# Details: plain residues with an end cap or a label only (N-terminal biotin on a linker: ado-ado)
row,pKd,Binder
1,below the threshold,B1
2,below the threshold,B2
3,below the threshold,B3

# Molecular target: T4, GRIP1_7, Q9Y3R0
# Experiment: holdup assay
# Set-up: key: below the threshold = too weak to quantify, mostly under pKd 3.1 to 4
# Details: plain residues with an end cap or a label only (N-terminal biotin on a linker: ado-ado)
row,pKd,Binder
1,below the threshold,B1
2,below the threshold,B2
3,below the threshold,B3

# Molecular target: HTRA1, Q92743
# Experiment: holdup assay
# Set-up: key: below the threshold = too weak to quantify, mostly under pKd 3.1 to 4
# Details: plain residues with an end cap or a label only (N-terminal biotin on a linker: ado-ado)
# HTRA1, Q92743, sequence (Q92743 360-477): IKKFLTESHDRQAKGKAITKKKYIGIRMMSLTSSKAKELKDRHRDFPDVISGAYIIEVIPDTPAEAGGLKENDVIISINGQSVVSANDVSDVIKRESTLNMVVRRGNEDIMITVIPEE
row,pKd,Binder
1,3.6,B1
2,below the threshold,B2
3,below the threshold,B3

# Molecular target: Inadl_1, Q8NI35
# Experiment: holdup assay
# Set-up: key: below the threshold = too weak to quantify, mostly under pKd 3.1 to 4
# Details: plain residues with an end cap or a label only (N-terminal biotin on a linker: ado-ado)
# Inadl_1, Q8NI35, sequence (Q8NI35 113-229): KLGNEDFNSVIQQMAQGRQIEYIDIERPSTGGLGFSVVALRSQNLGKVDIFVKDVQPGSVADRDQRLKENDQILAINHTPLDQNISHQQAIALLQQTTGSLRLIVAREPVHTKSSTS
row,pKd,Binder
1,below the threshold,B1
2,below the threshold,B2
3,below the threshold,B3

# Molecular target: LAP2, Q96RT1
# Experiment: holdup assay
# Set-up: key: below the threshold = too weak to quantify, mostly under pKd 3.1 to 4
# Details: plain residues with an end cap or a label only (N-terminal biotin on a linker: ado-ado)
# LAP2, Q96RT1, sequence (Q96RT1 other isoform, or with tags, fused parts or gaps): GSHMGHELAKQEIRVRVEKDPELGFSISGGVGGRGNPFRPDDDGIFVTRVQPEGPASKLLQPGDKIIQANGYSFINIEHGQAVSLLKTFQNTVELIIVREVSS
row,pKd,Binder
1,3.57,B1
2,below the threshold,B2
3,below the threshold,B3

# Molecular target: T5, LNX2_2, Q8N448
# Experiment: holdup assay
# Set-up: key: below the threshold = too weak to quantify, mostly under pKd 3.1 to 4
# Details: plain residues with an end cap or a label only (N-terminal biotin on a linker: ado-ado)
row,pKd,Binder
1,4.13,B1
2,below the threshold,B2
3,below the threshold,B3

# Molecular target: T6, LRRC7, Q96NW7
# Experiment: holdup assay
# Set-up: key: below the threshold = too weak to quantify, mostly under pKd 3.1 to 4
# Details: plain residues with an end cap or a label only (N-terminal biotin on a linker: ado-ado)
row,pKd,Binder
1,below the threshold,B1
2,below the threshold,B2
3,below the threshold,B3

# Molecular target: MAGI2_3, Q86UL8
# Experiment: holdup assay
# Set-up: key: below the threshold = too weak to quantify, mostly under pKd 3.1 to 4
# Details: plain residues with an end cap or a label only (N-terminal biotin on a linker: ado-ado)
# MAGI2_3, Q86UL8, sequence (Q86UL8 600-682): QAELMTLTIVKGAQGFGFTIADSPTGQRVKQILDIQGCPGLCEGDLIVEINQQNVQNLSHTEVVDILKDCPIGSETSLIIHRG
row,pKd,Binder
1,below the threshold,B1
2,3.48,B2
3,below the threshold,B3

# Molecular target: MAGI2_6, Q86UL8
# Experiment: holdup assay
# Set-up: key: below the threshold = too weak to quantify, mostly under pKd 3.1 to 4
# Details: plain residues with an end cap or a label only (N-terminal biotin on a linker: ado-ado)
# MAGI2_6, Q86UL8, sequence (Q86UL8 1141-1229): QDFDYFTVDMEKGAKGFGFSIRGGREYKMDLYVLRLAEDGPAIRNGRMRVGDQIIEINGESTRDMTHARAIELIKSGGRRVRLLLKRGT
row,pKd,Binder
1,below the threshold,B1
2,below the threshold,B2
3,below the threshold,B3

# Molecular target: T7, MPDZ_10, O75970
# Experiment: holdup assay
# Set-up: key: below the threshold = too weak to quantify, mostly under pKd 3.1 to 4
# Details: plain residues with an end cap or a label only (N-terminal biotin on a linker: ado-ado)
row,pKd,Binder
1,below the threshold,B1
2,below the threshold,B2
3,below the threshold,B3

# Molecular target: NHERF4_2, Q86UT5
# Experiment: holdup assay
# Set-up: key: below the threshold = too weak to quantify, mostly under pKd 3.1 to 4
# Details: plain residues with an end cap or a label only (N-terminal biotin on a linker: ado-ado)
# NHERF4_2, Q86UT5, sequence (Q86UT5 220-308): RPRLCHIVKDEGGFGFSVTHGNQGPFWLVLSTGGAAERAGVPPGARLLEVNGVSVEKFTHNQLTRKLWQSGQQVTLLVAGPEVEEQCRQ
row,pKd,Binder
1,below the threshold,B1
2,below the threshold,B2
3,below the threshold,B3

# Molecular target: NOS1, P29475
# Experiment: holdup assay
# Set-up: key: below the threshold = too weak to quantify, mostly under pKd 3.1 to 4
# Details: plain residues with an end cap or a label only (N-terminal biotin on a linker: ado-ado)
# NOS1, P29475, sequence (P29475 9-101): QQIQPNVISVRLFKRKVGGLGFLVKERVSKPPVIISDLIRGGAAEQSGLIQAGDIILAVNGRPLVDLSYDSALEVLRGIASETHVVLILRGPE
row,pKd,Binder
1,3.52,B1
2,below the threshold,B2
3,3.69,B3

# Molecular target: T8, PARD3B_1, Q8TEW8
# Experiment: holdup assay
# Set-up: key: below the threshold = too weak to quantify, mostly under pKd 3.1 to 4
# Details: plain residues with an end cap or a label only (N-terminal biotin on a linker: ado-ado)
row,pKd,Binder
1,4.23,B1
2,4.16,B2
3,3.69,B3

# Molecular target: T9, PCLO, Q9Y6V0
# Experiment: holdup assay
# Set-up: key: below the threshold = too weak to quantify, mostly under pKd 3.1 to 4
# Details: plain residues with an end cap or a label only (N-terminal biotin on a linker: ado-ado)
row,pKd,Binder
1,below the threshold,B1
2,below the threshold,B2
3,below the threshold,B3

# Molecular target: PDLIM1, O00151
# Experiment: holdup assay
# Set-up: key: below the threshold = too weak to quantify, mostly under pKd 3.1 to 4
# Details: plain residues with an end cap or a label only (N-terminal biotin on a linker: ado-ado)
# PDLIM1, O00151, sequence (O00151 1-87): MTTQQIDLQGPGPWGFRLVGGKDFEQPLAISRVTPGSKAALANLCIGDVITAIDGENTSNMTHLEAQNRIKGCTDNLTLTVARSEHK
row,pKd,Binder
1,below the threshold,B1
2,below the threshold,B2
3,below the threshold,B3

# Molecular target: SCRIB_2, Q14160
# Experiment: holdup assay
# Set-up: key: below the threshold = too weak to quantify, mostly under pKd 3.1 to 4
# Details: plain residues with an end cap or a label only (N-terminal biotin on a linker: ado-ado)
# SCRIB_2, Q14160, sequence (Q14160 857-960): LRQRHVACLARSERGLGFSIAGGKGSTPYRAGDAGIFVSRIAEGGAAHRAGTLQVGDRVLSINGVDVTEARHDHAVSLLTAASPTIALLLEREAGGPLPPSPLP
row,pKd,Binder
1,below the threshold,B1
2,below the threshold,B2
3,below the threshold,B3

# Molecular target: SCRIB_3, Q14160
# Experiment: holdup assay
# Set-up: key: below the threshold = too weak to quantify, mostly under pKd 3.1 to 4
# Details: plain residues with an end cap or a label only (N-terminal biotin on a linker: ado-ado)
# SCRIB_3, Q14160, sequence (Q14160 999-1103): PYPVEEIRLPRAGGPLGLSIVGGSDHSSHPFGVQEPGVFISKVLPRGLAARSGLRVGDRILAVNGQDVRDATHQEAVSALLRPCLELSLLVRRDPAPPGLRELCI
row,pKd,Binder
1,3.51,B1
2,3.5,B2
3,4.18,B3

# Molecular target: T10, SIPA1L2, Q9P2F8
# Experiment: holdup assay
# Set-up: key: below the threshold = too weak to quantify, mostly under pKd 3.1 to 4
# Details: plain residues with an end cap or a label only (N-terminal biotin on a linker: ado-ado)
row,pKd,Binder
1,below the threshold,B1
2,below the threshold,B2
3,below the threshold,B3

# Molecular target: T11, TIAM2, Q8IVF5
# Experiment: holdup assay
# Set-up: key: below the threshold = too weak to quantify, mostly under pKd 3.1 to 4
# Details: plain residues with an end cap or a label only (N-terminal biotin on a linker: ado-ado)
row,pKd,Binder
1,below the threshold,B1
2,3.65,B2
3,3.97,B3

# Molecular target: TJP1_2, Q07157
# Experiment: holdup assay
# Set-up: key: below the threshold = too weak to quantify, mostly under pKd 3.1 to 4
# Details: plain residues with an end cap or a label only (N-terminal biotin on a linker: ado-ado)
# TJP1_2, Q07157, sequence (Q07157 181-274): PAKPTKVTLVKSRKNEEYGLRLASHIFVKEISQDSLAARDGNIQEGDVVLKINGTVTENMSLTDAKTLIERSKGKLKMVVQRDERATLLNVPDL
row,pKd,Binder
1,4.03,B1
2,below the threshold,B2
3,below the threshold,B3
